Literature values, collected in patent publication US20030166570A1, “Peptide and its use in the treatment of hyperpigmentation conditions” (priority 2001, published 2003).
Ends that are not written are not given here.

Target: MC-1 receptor (Homo sapiens, UniProt Q01726)
Details: rank order; physiologic range for signal transduction

Sequence of MC-1 receptor (Q01726 whole entry): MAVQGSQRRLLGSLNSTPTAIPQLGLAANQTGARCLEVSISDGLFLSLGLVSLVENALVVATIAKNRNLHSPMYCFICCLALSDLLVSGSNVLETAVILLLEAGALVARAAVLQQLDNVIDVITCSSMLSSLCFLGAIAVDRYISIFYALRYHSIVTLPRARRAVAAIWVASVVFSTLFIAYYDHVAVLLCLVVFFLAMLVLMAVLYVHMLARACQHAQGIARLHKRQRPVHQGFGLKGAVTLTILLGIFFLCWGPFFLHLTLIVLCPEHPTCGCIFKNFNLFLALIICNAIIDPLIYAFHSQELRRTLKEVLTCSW

| relative affinities for the MC-1 receptor and stimulation of cAMP | Substance |
| --- | --- |
| no activity | ACTH 1-10: peptide fragment defined by residues 1-10 of ACTH |
| ACTH 1-17=α-MSH>ACTH | ACTH: 39-mer polypeptide hormone expressed in skin melanocytes and keratinocytes, derived from POMC (SYSMEHFRWGKPVGKKRRPVKVYPNGAEDESAEAFPLEF-NH2; UniProt P01189 138-176, looked up) |
| ACTH 1-17=α-MSH>ACTH | Ac-Ser^1-Tyr^2-Ser^3-Met^4-Glu^5-His^6-Phe^7-Arg^8-Trp^9-Gly^10-Lys^11-Pro^12-Val^13-NH2 [α-MSH] |
